Data taken from the supplement of paper PMC12042874.
± gives the uncertainty stated by the source.

Test: amyloid nucleation score (Sup35N fusion, yeast selection) (log enrichment); library NNK2; higher = more nucleation; inactive = no reads after selection
Outline: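 Nucleation score is defined as the DiMSum log enrichment of output over input reads, with centring on the mode score of non-aggregating sequences. A minimum of 100 input reads was required for each sequence. Reads came from Illumina sequencing of plasmid inserts from psi-negative yeast expressing Sup35N fused to peptides of 20 random codons, induced with 100 μM copper sulfate for 24 hours and grown 7 days at 30°C on medium lacking adenine and uracil.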

Substance	amyloid nucleation score
KFRCASWLCRSTKAWRRCGA	4.75 ± 0.049
LMRLDLGT	-0.518 ± 0.32
FQDWCHREYYLRLREVSLGG	inactive
SCVVLNSYQCTAKRY	0.284 ± 1.1
NSIGPTPGGN	0.123 ± 1
WSRMLFGECRSGKLRLPMPR	3.73 ± 0.099
VEYINWRFIRNTYSVE	2.14 ± 0.12
ARCMGFLSGGIHYRYLTAQM	inactive
ASGCLASEDKMGVYLWVV	0.171 ± 0.65
SSASLGVAV	-0.517 ± 0.76
ETESG	0.72 ± 0.38
KSPFVICGKRDVRK	-1.28 ± 1.1
MMGECNFCSIGRH	4.83 ± 0.078
SRVYRCGWLGS	0.274 ± 0.65
IFYCFGKLDA	5.18 ± 0.072
VTICIGVAFYVFCTSTSNCM	5.242 ± 0.039
NKNRKQSLDKPS	-0.493 ± 1.1
GYTRNHSLCFFFRMLYM	-1.29 ± 1
LTVRELLFTSRRHRARRHSC	1.81 ± 0.32
CSSNCFYEAFVLGYKTHARE	0.295 ± 1
DGINLDICCCNTDKLNIDRI	inactive
LFDSLPDYITTYYNNDAQQG	-1.85 ± 1
ENEWCCLWGRAKRVAGVQEV	0.495 ± 0.62
GLNLSREYYNLFEVEVHADT	-0.178 ± 0.55
ASGSKDACGCATSCV	0.86 ± 0.13

Substance	amyloid nucleation score
RLQRVLS	-0.458 ± 0.42
CRGTIWIAYSRYYYYRMNDF	inactive
FLMYFVNR	2.83 ± 0.055
GHGFCDNVTSP	-1.2 ± 1.1
NEHYGRTMTN	-0.064 ± 1.1
SLNYIFLNLCRYLSCGIYIH	inactive
SDLWSIPFFGFGDPPMGFFR	inactive
TATGTIECMVYPLTFSSLSP	-0.1 ± 1
GSIYTCCGAGRKQNVGPKYL	2.25 ± 0.1
FGNVMMTDAV	-0.631 ± 0.46
FYENN	-0.729 ± 0.78
DRGRSNWFRMMWIDGEHYSE	-0.492 ± 0.61
VKWTVNEVYGCYYCTGSVYA	6.154 ± 0.042
SWNELSRFLVILLFQLSRDR	-0.795 ± 0.43
IKSLSMRYFIRLFRY	inactive
SFCWRYMCRFVMDSFITVPR	-0.423 ± 0.34
MSFVDEYCGGEVTISEPSMS	-0.545 ± 0.76
VEINNNE	-0.065 ± 0.56
WCFFRVAFNW	1.88 ± 0.17
ASIGY	0.663 ± 0.22
LSWAHVVICLIW	inactive
WLYYDGSFW	-0.429 ± 0.76
EFGYFYLAMKISTSRYKQNY	1.41 ± 0.14
SPRSAIFSLTTQVF	3.34 ± 0.13
SSYLMTYC	-0.104 ± 0.35

Substance	amyloid nucleation score
IFVALEIGVVNVDQVAKDVC	6.75 ± 0.069
SRMLYVQIWREYVNSWKTSS	-0.356 ± 0.38
FNGSGARGSGRMYAILYKMS	0.422 ± 0.56
VDRWDGSVHCSIGGNFYCSG	-0.545 ± 0.54
DISYGSSDINHCLVTYMWQC	0.192 ± 1
FHINAFISTWFSDNFCFCDY	1.31 ± 0.22
TVFPMREIEVLFDSIWYGFN	1.71 ± 0.096
MATSMNQHGVRMVWSSRLGS	4.57 ± 0.051
MSFFYDMEEWRMCLRLARYR	3.82 ± 0.07
YVKVRWCGTSPCNEFLRSSY	0.429 ± 0.66
STLHQSIKTGDIFFDSGTFV	-0.889 ± 0.49
IHLRWPMKRLVYTYCFYFYS	-0.788 ± 0.76
YSCQFFCSVLLCLYVSHITN	inactive
CASAVLCCPKTSR	-0.02 ± 0.34
VLHRLRSLLERFLFYVDLIS	0.355 ± 0.65
SSFRSLRSRHPPGTLPPDTP	0.919 ± 0.3
CQISGCYWV	5.28 ± 0.074
MLRHSANMIKMLKHTTTND	0.004 ± 0.45
VIGCAQWFYFADMRGMPRNQ	4.95 ± 0.076
MHRLRYKATVFGLNNDDMPP	0.841 ± 0.44
VYLGIFRL	2.76 ± 0.13
GEQYATGLP	5.514 ± 0.039
NYEGNGRVVITLLLGSNWYR	4.04 ± 0.086
FVQCLWVAWGSSGSSWQKSE	5.541 ± 0.041
KFKFKESGFEVVSLGGMVTP	inactive

Substance	amyloid nucleation score
SRLISTHTAT	inactive
FISSMGRVW	-1 ± 0.55
DIVNLSEDGLSSNELFIARM	-0.52 ± 1.1
FVSLTLCCYGEGDVPLREVQ	1.9 ± 0.14
FCDALQISSYTSENYGIVWS	-0.685 ± 0.36
KNSGSMIRWIFIRGSTTIEK	inactive
NDSTLGRLSYNLRDLRSQKM	-0.502 ± 0.79
TCICEVHTPTSSMISPSMSF	-1.51 ± 0.75
HGVLVIVRAYVHVGEWVAQL	1.96 ± 0.4
AIRRPDRSQFLAYLVSSCKF	-0.218 ± 0.45
DPWRGGPVSSH	1.18 ± 0.23
FYFKRQNNNDQVIVTHTT	-0.103 ± 0.61
IPSRFPNFNR	-1.62 ± 0.55
LTILFH	4.84 ± 0.078
SIAGVIMVDSSSLSM	-1.01 ± 0.78
LTTGKLYFSLEMYT	-0.653 ± 0.63
LVGWSLHSITFPEWRGHNPK	-0.991 ± 1.1
FCCSKLAPRTGYYSF	7.12 ± 0.066
VNSNINFMEGYGCFKKIVNF	-1.36 ± 0.75
LDNYCFHAASYSQHNSSTGP	0.804 ± 0.46
SGRIYSGDETMFRWECRYWC	3.25 ± 0.051
KLPAVNLVVMREWKALRFGV	-0.48 ± 0.33
RADALIVTVARFTPPALVKV	1.15 ± 0.68
DFSAFNEGHQINHLIQGSV	-1.35 ± 0.62
ILCFGFITTNSIRLQSPMVV	0.753 ± 0.51

Substance	amyloid nucleation score
TASHTWSVVCFTWYRCLVND	4.98 ± 0.051
PFWVGNGKQGVFGKFDCYVI	-1.19 ± 0.34
SGIGVNSGAGRNMDLCDLKR	inactive
GTFIGVNLN	inactive
HSLVTDEASCLTDRGHVGQV	1.22 ± 0.27
NTLYSFVRGCKPRMEFNRVK	-0.965 ± 1
ALLFYGKMY	5.966 ± 0.052
FPQWFHFGCNLARSL	-0.613 ± 0.46
FGAFVYWVFSIAYTLSRGSR	-1.03 ± 0.6
CFCWLLNSNLKGNLSRGRHL	-0.337 ± 1.1
ETPLTGLRNPSLNQCLMELM	0.232 ± 0.5
CVACLDM	inactive
SRGISKVTWP	0.276 ± 0.28
YDANLRLYSYSRTQLFSSWS	3.83 ± 0.088
VFDVISI	-0.064 ± 0.76
TMLSESTVQTKRVRMQESRR	7.03 ± 0.071
VMFWLPPTSGNSWSDCTHKI	inactive
QELIK	0.574 ± 0.44
CYFSDPVHLENPSINSISFW	inactive
LLKLNGILVCLDRGVMPHDS	2.57 ± 0.092
YHFFKCRPCSFSWLITGMVK	-0.287 ± 0.63
HVVTRVSFESVFCLFTYF	3.83 ± 0.085
VILVSVASINSRCVIGFSKF	4.64 ± 0.07
YRPQATGLGSRGRR	0.81 ± 0.43
TNCGRVINRSSVVHAFNYGV	inactive

Substance	amyloid nucleation score
KRNRQMSFRMVSLTRNTSPH	0.792 ± 0.53
NCMPMEYNDGENAVMCGFNG	0.11 ± 0.27
LVMFKVTF	6.432 ± 0.04
DSIARYCVTYLWCNLHLLVK	4.01 ± 0.13
FRSHCWL	0.285 ± 0.41
LSYRVRCIRMNMLSSALGTM	inactive
NQFVVMDQVLVMWGCFDLTR	0.417 ± 0.46
RKVLLVNVLGSDEDTHLTRV	-0.973 ± 0.76
LCIPSVTTDS	inactive
RLKGGFVEGPSGRVTCVRIT	0.132 ± 0.38
PEGISNGLK	-1.44 ± 0.55
NTIQCY	inactive
VCSTLVSFHHQRVKKVDAV	-1.12 ± 0.78
WVGAVKFFRSVKRQMSIYLE	inactive
TDGVLFQLVDSKFV	-1.25 ± 0.64
WMLNLDLLIFASLRGVVEGD	inactive
TADLDIDGPVS	4.64 ± 0.094
YMRGITHSAGCSSLAINVEH	-1.23 ± 1.1
REKVVKEPRTDESFVGRGGS	0.724 ± 0.28
CGRRMYKSIVQICMFRGNLN	0.053 ± 0.79
FFSDVIRFWNKHTCKINLLR	-1.33 ± 1
FTALSIGLIIVMLRLYRRCF	-0.733 ± 0.64
IKSRICISSYNNDMCGRFVL	-1.86 ± 0.62
IHLQIWAFFMLRIPPGRNKT	-0.636 ± 0.76
ELYRCA	0.744 ± 0.22

Substance	amyloid nucleation score
SKHFIVTVLTAITSNVSFSM	2.38 ± 0.066
SRIRDLVPHIRC	-0.594 ± 1.1
ILYKYETLMLFLSSEYNVIC	3.9 ± 0.039
GAMNCRVSSKTRWCDTHMVP	1.53 ± 0.52
CSSFKSLIRLGTLNRRNRNE	3.68 ± 0.059
IIHDEVSLPWI	inactive
YAFSMDRWVDLMLFQRV	4.96 ± 0.092
MDPVWVYADFWMF	-0.78 ± 1.1
VVRVLLVWMFLLTLWHHLVN	-0.158 ± 0.34
HFGAFMHCVCTRLKMS	-0.08 ± 0.61
RAFRKAGMYSYLSG	3 ± 0.056
RRAVLVSPGVVNQGISKHQG	0.632 ± 0.25
WVHGIESSRWRFGL	-0.474 ± 1.1
SELRKVRCNG	0.813 ± 0.46
VKGVWWYRIMS	0.785 ± 0.51
RITPFWYQRIYRIMY	-0.339 ± 0.22
FNRKTKWAYFWLVHGRNR	5.213 ± 0.052
SWVLLAY	0.45 ± 0.8
TIAPGRRYENVNKGCERRFI	-1.76 ± 0.76
YYYIRCTAVK	-0.495 ± 0.65
VPKVKNLDWSSELAKFKLEV	2.95 ± 0.1
FLRWRDKWHG	0.861 ± 0.29
